Test results published in US20150093383A1 (ONO PHARMACEUTICAL, published 2015).
Square brackets hold non-standard residues; d marks the D form. Ends that are not written are not given here. * marks the point of attachment. Biotin = O=C1N[C@H]2[C@H](CS[C@H]2CCCCC(=O)*)N1; pY = N[C@@H](Cc1ccc(OP(=O)(O)O)cc1)C(=O)O

Columns and labels:
[1] = target: T1, SHP-1 (mouse (endogenous in mouse B cell …, UniProt P29351 1-595)); test: co-immunoprecipitation with 2.4G2 from stimulated A20IIA1.6 cells, Western blotting
T1 construct: Detected by Western blotting with a Santacruz primary antibody; also called phosphatase
Protocol: (§1) Examination was carried out on whether or not intracellular tyrosine residue is phosphorylated and a phosphatase is recruited when BIR1 is activated. With 30 μg/mL of F(ab′)₂ of rabbit anti-mouse IgG (H+L) antibody or 45 μg/mL of intact antibody thereof (manufactured by Zymed), 3×10⁷ cells of the FcR chimeric protein-stably expressing cell suspended in Ca²⁺-containing HEPES/Hanks' buffer were stimulated at 37° C. for 3 minutes. Thereafter, the cells were lysed with a lysis buffer (1% NP-40, 50 mmol/L Tris-HCl, pH 8.0, 150 mmol/L NaCl, 50 mmol/L NaF, 10% glycerol, 1 mmol/L Na₃VO₄, […], proteinnase inhibitor cocktail tablet (manufactured by Roche Diagnostics)). The cell lysate was allowed to react with Protein A/G PLUS-Agarose (manufactured by Santacruz) to which a rat anti-mouse CD16/CD32 antibody (2.4G2) (manufactured by BD Pharmingen) is bound, at 4° C. for 5 hours or more. The FcR chimeric protein and binding molecules thereof are immuno-precipitated and then Western blotting was carried out in the usual way. The membrane was allowed to react with phosphotyrosine (4G10) (manufactured by Upstate) and primary antibodies for SHP-1, SHP-2 and SHIP-1 (manufactured by Santacruz), followed by the reaction with a horse radish peroxidase (HRP)-labeled secondary antibody (manufactured by Santacruz) to detect the bands by an ECL detection system (manufactured by Amersham Biosciences).

[2] = target: T2, SHP-2 (mouse (endogenous in mouse B cell …, UniProt P35235 2-593)); test: as above
T2 construct: Detected by Western blotting with a Santacruz primary antibody; also called phosphatase
T2 sequence (looked up): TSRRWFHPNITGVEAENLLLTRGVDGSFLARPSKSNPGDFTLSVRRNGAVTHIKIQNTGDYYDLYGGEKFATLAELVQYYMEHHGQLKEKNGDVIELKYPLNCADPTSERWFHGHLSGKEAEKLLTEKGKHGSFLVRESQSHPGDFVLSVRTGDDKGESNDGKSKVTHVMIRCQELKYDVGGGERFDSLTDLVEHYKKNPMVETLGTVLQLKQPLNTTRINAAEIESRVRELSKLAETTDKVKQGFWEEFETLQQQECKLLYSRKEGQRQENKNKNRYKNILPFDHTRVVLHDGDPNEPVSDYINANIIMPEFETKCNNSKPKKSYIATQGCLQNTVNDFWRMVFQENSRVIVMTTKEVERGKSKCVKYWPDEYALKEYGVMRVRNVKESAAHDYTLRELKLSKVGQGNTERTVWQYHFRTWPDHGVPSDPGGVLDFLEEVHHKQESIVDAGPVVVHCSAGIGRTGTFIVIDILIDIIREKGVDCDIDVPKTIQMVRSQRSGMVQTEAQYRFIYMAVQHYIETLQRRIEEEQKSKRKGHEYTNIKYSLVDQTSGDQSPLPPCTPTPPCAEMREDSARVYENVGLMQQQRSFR
Protocol: as §1

[3] = target: T3, SHIP-1 (mouse (endogenous in mouse B cell …, UniProt Q9ES52 1-1191, limits assumed)); test: as above
T3 construct: Detected by Western blotting with a Santacruz primary antibody; also called phosphatase
T3 sequence (looked up): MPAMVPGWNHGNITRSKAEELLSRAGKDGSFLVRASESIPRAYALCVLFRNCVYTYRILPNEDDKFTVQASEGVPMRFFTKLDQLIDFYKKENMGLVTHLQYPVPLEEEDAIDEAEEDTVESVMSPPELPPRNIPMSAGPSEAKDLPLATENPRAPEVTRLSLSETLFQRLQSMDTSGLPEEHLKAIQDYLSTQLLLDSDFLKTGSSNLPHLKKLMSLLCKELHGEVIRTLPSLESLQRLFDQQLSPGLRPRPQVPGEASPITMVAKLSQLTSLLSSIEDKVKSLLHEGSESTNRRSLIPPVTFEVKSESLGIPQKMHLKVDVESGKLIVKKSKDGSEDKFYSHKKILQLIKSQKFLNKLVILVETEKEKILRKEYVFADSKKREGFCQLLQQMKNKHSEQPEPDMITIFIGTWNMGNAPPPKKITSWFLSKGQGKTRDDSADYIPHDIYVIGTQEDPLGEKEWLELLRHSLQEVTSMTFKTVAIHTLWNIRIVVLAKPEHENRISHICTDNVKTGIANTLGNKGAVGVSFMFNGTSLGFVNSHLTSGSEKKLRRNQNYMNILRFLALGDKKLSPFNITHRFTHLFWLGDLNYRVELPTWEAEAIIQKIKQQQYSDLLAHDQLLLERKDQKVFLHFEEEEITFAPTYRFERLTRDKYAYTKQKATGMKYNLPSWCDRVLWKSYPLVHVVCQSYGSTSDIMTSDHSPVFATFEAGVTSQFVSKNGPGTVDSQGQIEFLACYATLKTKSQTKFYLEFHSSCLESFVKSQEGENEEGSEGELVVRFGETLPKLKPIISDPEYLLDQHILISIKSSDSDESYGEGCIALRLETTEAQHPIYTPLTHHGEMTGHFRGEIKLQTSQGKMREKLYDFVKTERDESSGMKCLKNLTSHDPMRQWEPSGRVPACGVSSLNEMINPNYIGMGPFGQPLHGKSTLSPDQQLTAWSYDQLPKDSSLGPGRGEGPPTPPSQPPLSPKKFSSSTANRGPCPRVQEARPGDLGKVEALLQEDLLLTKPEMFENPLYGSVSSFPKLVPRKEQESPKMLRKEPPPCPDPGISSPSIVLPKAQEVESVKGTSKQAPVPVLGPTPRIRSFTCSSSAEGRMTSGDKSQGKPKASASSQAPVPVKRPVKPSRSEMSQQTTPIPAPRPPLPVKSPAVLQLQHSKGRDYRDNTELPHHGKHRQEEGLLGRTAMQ
Protocol: as §1

[4] = target: T1, SHP-1; test: pull-down of A20IIA1.6 lysate with biotinylated phosphopeptide, Western blotting
Text: (§2) The ITIM domain which is a sequence important for BIR1 in transmitting inhibitory signal and the binding phosphatase were identified. Peptides (Y3: Biotin-HSQELQ³¹³YATPVF (SEQ ID NO:23), Y5: Biotin-DSYKSG³³⁶YVYSEL (SEQ ID NO:24), Y6: Biotin-YKSGYV³³⁸YSELNF (SEQ ID NO:25)) containing intracellular tyrosine of BIR1 (SEQ ID NO:1) and their corresponding phosphorylated peptides (pY3: Biotin-HSQELQ³¹³(pY)ATPVF (SEQ ID NO:26), pY5: Biotin-DSYKSG³³⁶(pY)VYSEL (SEQ ID NO:27), pY6: Biotin-YKSGYV³³⁸(pY)SELNF (SEQ ID NO:28)) were synthesized (consigned to Sigma Genosys). A peptide containing the ITIM sequence of mouse PIR-B and its phosphorylated peptide (Y3: Biotin-ESQDVT⁷⁹⁴YAQLCS (SEQ ID NO:29) and pY3: Biotin-ESQDVT⁷⁹⁴(pY)AQLCS (SEQ ID NO:30)) were synthesized as positive controls. These peptides were connected to Protein A/G PLUS-Agarose (manufactured by Santacruz) via an anti-biotin antibody (manufactured by Sigma) and then allowed to react with a lysate of A20IIA1.6 cell at 4° C. for 2 hours. After immunoprecipitation, western blotting was carried out in the usual way. The membrane was allowed to react with primary antibodies for SHP-1, SHP-2 and SHIP-1 (manufactured by Santacruz), and then allowed to react with an (HRP)-labeled secondary antibody (manufactured by Santacruz), and the bands were detected using an ECL plus Western Blotting Detection System (manufactured by Amersham Biosciences).

[5] = target: T2, SHP-2; test: as above
Text: as §2

[6] = target: T3, SHIP-1; test: as above
Text: as §2

Measured: binding result

T1 sequence (P29351 whole entry): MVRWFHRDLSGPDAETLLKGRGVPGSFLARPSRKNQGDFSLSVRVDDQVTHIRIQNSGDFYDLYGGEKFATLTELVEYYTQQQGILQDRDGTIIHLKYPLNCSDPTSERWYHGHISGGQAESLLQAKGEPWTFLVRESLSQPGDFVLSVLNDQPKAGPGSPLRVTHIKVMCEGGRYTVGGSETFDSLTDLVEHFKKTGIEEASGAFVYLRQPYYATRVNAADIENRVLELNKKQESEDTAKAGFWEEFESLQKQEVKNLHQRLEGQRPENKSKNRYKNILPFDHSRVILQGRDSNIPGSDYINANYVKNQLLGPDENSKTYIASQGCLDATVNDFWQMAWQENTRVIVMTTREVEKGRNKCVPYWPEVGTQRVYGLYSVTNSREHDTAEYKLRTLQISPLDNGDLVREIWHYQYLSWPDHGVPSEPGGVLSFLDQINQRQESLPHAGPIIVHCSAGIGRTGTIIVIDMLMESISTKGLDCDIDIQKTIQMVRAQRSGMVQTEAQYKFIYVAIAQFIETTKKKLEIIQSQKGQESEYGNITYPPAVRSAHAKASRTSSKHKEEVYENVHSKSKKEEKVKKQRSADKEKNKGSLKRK

B1: FcR-hBIR1 (YWF) (receptor)
chain: THDLPKAVVKLEPPWIQVLKEDTVTLTCEGTHNPGNSSTQWFHNGRSIRSQVQASYTFKATVNDSGEYRCQMEQTRLSDPVDLGVISDWLLLQTPQLVFLEGETITLRCHSWRNKLLNRISFFHNEKSVRYHHYSSNFSIPKANHSHSGDYYCKGSLGRTLHQSKPVTITVQGPKSSRSLPVLTIVAAVTGIAVAAIVIILVSLVYLKKKQVPKFKTRKAMRNNVPRDRGDTAMEVGIFANILEKQAKEESVPEVGSRPCVSTAQDEAKHSQELQFATPVFQEVAPREQEACDSFKSGFVFSELNF
notes: Stably expressed in the mouse B cell strain A20IIA1.6; Immunoprecipitated from the cell lysate with 2.4G2; also called mutant in which intracellular tyrosine residue of BIR1 was replaced by phenylalanine residue
no binding: [1] | [2] | [3]

Biotin-DSYKSG[pY]VYSEL (Synthesised by Sigma Genosys) [pY5: Biotin-DSYKSG^336(pY)VYSEL]
no binding: [4] | [5] | [6]
